According to IntAct's records for PubMed 31515488:

B1: Pachytene checkpoint protein 2 homolog (Homo sapiens), Q15645 (parent)
chain: MDEAVGDLKQALPCVAESPTVHVEVHQRGSSTAKKEDINLSVRKLLNRHNIVFGDYTWTEFDEPFLTRNVQSVSIIDTELKVKDSQPIDLSACTVALHIFQLNEDGPSSENLEEETENIIAANHWVLPAAEFHGLWDSLVYDVEVKSHLLDYVMTTLLFSDKNVNSNLITWNRVVLLHGPPGTGKTSLCKALAQKLTIRLSSRYRYGQLIEINSHSLFSKWFSESGKLVTKMFQKIQDLIDDKDALVFVLIDEVESLTAARNACRAGTEPSDAIRVVNAVLTQIDQIKRHSNVVILTTSNITEKIDVAFVDRADIKQYIGPPSAAAIFKIYLSCLEELMKCQIIYPRQQLLTLRELEMIGFIENNVSKLSLLLNDISRKSEGLSGRVLRKLPFLAHALYVQAPTVTIEGFLQALSLAVDKQFEERKKLAAYI
B2: Asparagine synthetase [glutamine-hydrolyzing] (Homo sapiens), P08243 (parent)
chain: MCGIWALFGSDDCLSVQCLSAMKIAHRGPDAFRFENVNGYTNCCFGFHRLAVVDPLFGMQPIRVKKYPYLWLCYNGEIYNHKKMQQHFEFEYQTKVDGEIILHLYDKGGIEQTICMLDGVFAFVLLDTANKKVFLGRDTYGVRPLFKAMTEDGFLAVCSEAKGLVTLKHSATPFLKVEPFLPGHYEVLDLKPNGKVASVEMVKYHHCRDVPLHALYDNVEKLFPGFEIETVKNNLRILFNNAVKKRLMTDRRIGCLLSGGLDSSLVAATLLKQLKEAQVQYPLQTFAIGMEDSPDLLAARKVADHIGSEHYEVLFNSEEGIQALDEVIFSLETYDITTVRASVGMYLISKYIRKNTDSVVIFSGEGSDELTQGYIYFHKAPSPEKAEEESERLLRELYLFDVLRADRTTAAHGLELRVPFLDHRFSSYYLSLPPEMRIPKNGIEKHLLRETFEDSNLIPKEILWRPKEAFSDGITSVKNSWFKILQEYVEHQVDDAMMANAAQKFPFNTPKTKEGYYYRQVFERHYPGRADWLSHYWMPKWINATDPSARTLTHYKSAVKA
partner: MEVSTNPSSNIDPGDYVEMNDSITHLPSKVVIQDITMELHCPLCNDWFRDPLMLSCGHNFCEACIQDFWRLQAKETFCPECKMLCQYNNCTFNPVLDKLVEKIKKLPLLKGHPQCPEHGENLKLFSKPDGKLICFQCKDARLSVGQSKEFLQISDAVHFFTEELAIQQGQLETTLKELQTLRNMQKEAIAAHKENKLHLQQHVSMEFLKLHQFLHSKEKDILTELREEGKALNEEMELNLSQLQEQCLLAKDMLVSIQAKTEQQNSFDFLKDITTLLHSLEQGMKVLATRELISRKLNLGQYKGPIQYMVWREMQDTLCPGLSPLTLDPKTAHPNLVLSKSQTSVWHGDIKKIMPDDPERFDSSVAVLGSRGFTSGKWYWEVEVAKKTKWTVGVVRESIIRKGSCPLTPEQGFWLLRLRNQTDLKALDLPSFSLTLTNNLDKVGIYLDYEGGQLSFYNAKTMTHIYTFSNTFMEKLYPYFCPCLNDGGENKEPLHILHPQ
B3: Fas-activated serine/threonine kinase (Homo sapiens), Q14296-1 (parent)
chain: MRRPRGEPGPRAPRPTEGATCAGPGESWSPSPNSMLRVLLSAQTSPARLSGLLLIPPVQPCCLGPSKWGDRPVGGGPSAGPVQGLQRLLEQAKSPGELLRWLGQNPSKVRAHHYSVALRRLGQLLGSRPRPPPVEQVTLQDLSQLIIRNCPSFDIHTIHVCLHLAVLLGFPSDGPLVCALEQERRLRLPPKPPPPLQPLLRGGQGLEAALSCPRFLRYPRQHLISSLAEARPEELTPHVMVLLAQHLARHRLREPQLLEAIAHFLVVQETQLSSKVVQKLVLPFGRLNYLPLEQQFMPCLERILAREAGVAPLATVNILMSLCQLRCLPFRALHFVFSPGFINYISGTPHALIVRRYLSLLDTAVELELPGYRGPRLPRRQQVPIFPQPLITDRARCKYSHKDIVAEGLRQLLGEEKYRQDLTVPPGYCTDFLLCASSSGAVLPVRTQDPFLPYPPRSCPQGQAASSATTRDPAQRVVLVLRERWHFCRDGRVLLGSRALRERHLGLMGYQLLPLPFEELESQRGLPQLKSYLRQKLQALGLRWGPEGG
partner: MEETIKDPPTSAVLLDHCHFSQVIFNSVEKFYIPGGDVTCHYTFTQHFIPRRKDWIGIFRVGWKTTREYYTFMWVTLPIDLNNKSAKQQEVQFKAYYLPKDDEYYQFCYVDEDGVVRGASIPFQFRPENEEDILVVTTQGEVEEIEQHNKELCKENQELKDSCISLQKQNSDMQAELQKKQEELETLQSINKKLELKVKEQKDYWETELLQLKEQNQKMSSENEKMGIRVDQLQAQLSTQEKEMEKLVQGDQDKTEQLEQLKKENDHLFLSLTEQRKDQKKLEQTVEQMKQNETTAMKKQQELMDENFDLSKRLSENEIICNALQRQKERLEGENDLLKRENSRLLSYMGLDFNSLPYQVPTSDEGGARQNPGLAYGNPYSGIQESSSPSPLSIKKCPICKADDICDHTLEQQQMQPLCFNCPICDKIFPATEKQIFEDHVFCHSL
B4: Zinc finger protein Aiolos (Homo sapiens), Q9UKT9 (parent)
chain: MEDIQTNAELKSTQEQSVPAESAAVLNDYSLTKSHEMENVDSGEGPANEDEDIGDDSMKVKDEYSERDENVLKSEPMGNAEEPEIPYSYSREYNEYENIKLERHVVSFDSSRPTSGKMNCDVCGLSCISFNVLMVHKRSHTGERPFQCNQCGASFTQKGNLLRHIKLHTGEKPFKCHLCNYACQRRDALTGHLRTHSVEKPYKCEFCGRSYKQRSSLEEHKERCRTFLQSTDPGDTASAEARHIKAEMGSERALVLDRLASNVAKRKSSMPQKFIGEKRHCFDVNYNSSYMYEKESELIQTRMMDQAINNAISYLGAEALRPLVQTPPAPTSEMVPVISSMYPIALTRAEMSNGAPQELEKKSIHLPEKSVPSERGLSPNNSGHDSTDTDSNHEERQNHIYQQNHMVLSRARNGMPLLKEVPRSYELLKPPPICPRDSVKVINKEGEVMDVYRCDHCRVLFLDYVMFTIHMGCHGFRDPFECNMCGYRSHDRYEFSSHIARGEHRALLK
partner: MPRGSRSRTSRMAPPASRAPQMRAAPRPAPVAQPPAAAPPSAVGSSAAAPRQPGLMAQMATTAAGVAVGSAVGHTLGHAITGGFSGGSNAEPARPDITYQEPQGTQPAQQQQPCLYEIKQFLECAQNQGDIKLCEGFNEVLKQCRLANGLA
B5: Protein LDOC1 (Homo sapiens), O95751 (parent)
chain: MVDELVLLLHALLMRHRALSIENSQLMEQLRLLVCERASLLRQVRPPSCPVPFPETFNGESSRLPEFIVQTASYMLVNENRFCNDAMKVAFLISLLTGEAEEWVVPYIEMDSPILGDYRAFLDEMKQCFGWDDDEDDDDEEEEDDY
partner: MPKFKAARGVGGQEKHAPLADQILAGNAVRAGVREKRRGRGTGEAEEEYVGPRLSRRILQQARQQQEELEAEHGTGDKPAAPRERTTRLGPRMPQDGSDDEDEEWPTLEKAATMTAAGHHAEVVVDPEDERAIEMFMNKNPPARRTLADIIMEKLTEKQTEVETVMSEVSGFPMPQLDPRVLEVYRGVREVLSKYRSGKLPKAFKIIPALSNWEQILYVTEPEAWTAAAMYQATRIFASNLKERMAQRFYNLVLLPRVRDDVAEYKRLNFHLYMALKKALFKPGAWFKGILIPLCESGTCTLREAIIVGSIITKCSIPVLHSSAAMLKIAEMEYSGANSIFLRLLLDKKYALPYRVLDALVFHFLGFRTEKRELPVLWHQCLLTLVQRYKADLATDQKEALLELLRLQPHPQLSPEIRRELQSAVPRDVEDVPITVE
B6: Histone-lysine N-methyltransferase SMYD1 (Homo sapiens), Q8NB12 (parent)
chain: MTIGRMENVEVFTAEGKGRGLKATKEFWAADIIFAERAYSAVVFDSLVNFVCHTCFKRQEKLHRCGQCKFAHYCDRTCQKDAWLNHKNECSAIKRYGKVPNENIRLAARIMWRVEREGTGLTEGCLVSVDDLQNHVEHFGEEEQKDLRVDVDTFLQYWPPQSQQFSMQYISHIFGVINCNGFTLSDQRGLQAVGVGIFPNLGLVNHDCWPNCTVIFNNGNHEAVKSMFHTQMRIELRALGKISEGEELTVSYIDFLNVSEERKRQLKKQYYFDCTCEHCQKKLKDDLFLGVKDNPKPSQEVVKEMIQFSKDTLEKIDKARSEGLYHEVVKLCRECLEKQEPVFADTNIYMLRMLSIVSEVLSYLQAFEEASFYARRMVDGYMKLYHPNNAQLGMAVMRAGLTNWHAGNIEVGHGMICKAYAILLVTHGPSHPITKDLEAMRVQTEMELRMFRQNEFMYYKMREAALNNQPMQVMAEPSNEPSPALFHKKQ
partner: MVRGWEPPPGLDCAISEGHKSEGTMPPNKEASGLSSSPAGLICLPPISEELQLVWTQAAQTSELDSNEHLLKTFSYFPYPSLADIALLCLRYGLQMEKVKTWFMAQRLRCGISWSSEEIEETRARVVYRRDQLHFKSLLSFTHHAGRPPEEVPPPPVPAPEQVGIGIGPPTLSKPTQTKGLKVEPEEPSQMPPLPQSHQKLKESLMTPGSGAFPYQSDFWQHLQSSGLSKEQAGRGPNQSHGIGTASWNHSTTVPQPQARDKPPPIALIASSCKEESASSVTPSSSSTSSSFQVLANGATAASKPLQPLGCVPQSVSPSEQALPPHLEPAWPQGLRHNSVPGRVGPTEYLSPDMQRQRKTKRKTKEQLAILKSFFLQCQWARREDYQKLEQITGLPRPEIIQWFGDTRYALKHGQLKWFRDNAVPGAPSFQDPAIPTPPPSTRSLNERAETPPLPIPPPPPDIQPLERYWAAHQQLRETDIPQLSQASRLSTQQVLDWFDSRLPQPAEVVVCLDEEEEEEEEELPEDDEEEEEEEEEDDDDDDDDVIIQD
B7: Caspase-9 (Homo sapiens), P55211 (parent)
chain: MDEADRRLLRRCRLRLVEELQVDQLWDALLSRELFRPHMIEDIQRAGSGSRRDQARQLIIDLETRGSQALPLFISCLEDTGQDMLASFLRTNRQAAKLSKPTLENLTPVVLRPEIRKPEVLRPETPRPVDIGSGGFGDVGALESLRGNADLAYILSMEPCGHCLIINNVNFCRESGLRTRTGSNIDCEKLRRRFSSLHFMVEVKGDLTAKKMVLALLELAQQDHGALDCCVVVILSHGCQASHLQFPGAVYGTDGCPVSVEKIVNIFNGTSCPSLGGKPKLFFIQACGGEQKDHGFEVASTSPEDESPGSNPEPDATPFQEGLRTFDQLDAISSLPTPSDIFVSYSTFPGFVSWRDPKSGSWYVETLDDIFEQWAHSEDLQSLLLRVANAVSVKGIYKQMPGCFNFLRKKLFFKTS

Variants of: B1
Conditions: with meak7_human MEAK7, Q6P9B6
Chain of meak7_human MEAK7, Q6P9B6 (Q6P9B6 whole entry): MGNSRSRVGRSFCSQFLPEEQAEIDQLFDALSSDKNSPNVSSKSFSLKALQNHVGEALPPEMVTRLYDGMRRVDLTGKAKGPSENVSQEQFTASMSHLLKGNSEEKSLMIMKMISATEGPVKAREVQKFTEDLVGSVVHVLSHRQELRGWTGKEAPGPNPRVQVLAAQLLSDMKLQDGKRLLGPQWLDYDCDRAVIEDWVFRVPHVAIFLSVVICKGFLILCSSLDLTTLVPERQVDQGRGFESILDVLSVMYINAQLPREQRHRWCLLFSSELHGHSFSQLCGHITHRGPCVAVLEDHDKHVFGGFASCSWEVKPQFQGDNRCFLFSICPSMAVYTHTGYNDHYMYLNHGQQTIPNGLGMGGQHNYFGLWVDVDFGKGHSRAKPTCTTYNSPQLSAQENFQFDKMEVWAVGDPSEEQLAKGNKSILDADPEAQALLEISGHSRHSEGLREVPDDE

Variant	effect of a mutation on the interaction
G409E	with no effect

Variants of: B1
Conditions: with fnd3b_human FNDC3B

Variant	effect of a mutation on the interaction
G409E	with no effect

Variants of: B2
Conditions: with tri69_human TRIM69, Q86WT6

Variant	effect of a mutation on the interaction
A277T	with no effect

Variants of: B3
Conditions: with caco2_human CALCOCO2, Q13137

Variant	effect of a mutation on the interaction
V424L	with no effect

Variants of: B4
Conditions: with chch2_human CHCHD2, Q9Y6H1

Variant	effect of a mutation on the interaction
N119D	with no effect
A24V	with no effect

Variants of: B5
Conditions: with byst_human BYSL

Variant	effect of a mutation on the interaction
L12H	disrupting interaction strength

Variants of: B6
Conditions: with homez_human HOMEZ

Variant	effect of a mutation on the interaction
R441W	with no effect

Variants of: B7
Conditions: with birc2_human BIRC2, Q13490
Chain of birc2_human BIRC2, Q13490 (Q13490 whole entry): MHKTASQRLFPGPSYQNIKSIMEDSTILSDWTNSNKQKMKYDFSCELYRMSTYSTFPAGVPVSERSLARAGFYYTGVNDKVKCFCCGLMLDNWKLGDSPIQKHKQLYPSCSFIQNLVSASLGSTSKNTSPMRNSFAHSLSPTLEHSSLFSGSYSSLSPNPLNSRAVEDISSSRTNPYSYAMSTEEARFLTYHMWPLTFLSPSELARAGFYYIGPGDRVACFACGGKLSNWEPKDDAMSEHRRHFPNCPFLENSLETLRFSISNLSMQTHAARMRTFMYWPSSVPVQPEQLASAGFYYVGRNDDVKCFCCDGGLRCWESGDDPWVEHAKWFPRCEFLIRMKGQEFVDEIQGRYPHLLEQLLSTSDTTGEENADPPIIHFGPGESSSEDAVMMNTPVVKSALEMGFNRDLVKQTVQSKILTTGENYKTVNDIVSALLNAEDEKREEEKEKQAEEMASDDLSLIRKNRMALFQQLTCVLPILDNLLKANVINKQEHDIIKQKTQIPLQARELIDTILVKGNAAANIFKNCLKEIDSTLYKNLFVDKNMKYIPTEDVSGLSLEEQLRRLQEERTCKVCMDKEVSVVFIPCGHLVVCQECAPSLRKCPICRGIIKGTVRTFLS

Variant	effect of a mutation on the interaction
R178C	disrupting interaction strength
P336S	with no effect

Variants of: B7
Conditions: with xiap_human XIAP

Variant	effect of a mutation on the interaction
P336S	with no effect
